Laboratory results: article PMC6530869

What was measured:
Details in all cases: SpdR and RtrB: 20 mM HEPES pH 7.8, 4 mM MgCl2, 37 mM KCl, 1 mM CaCl2, 0.75 mM DTT, 8% glycerol, 75 ug/ml BSA; RtrA: 10 mM Tris pH 7.6, 2 mM MgCl2, 50 mM KCl …
[1] = target: T1, SpdR(D64E) D64E (Caulobacter crescentus (NA1000?)) (UniProt A0A0H3C6B9); experiment: EMSA
T1 sequence: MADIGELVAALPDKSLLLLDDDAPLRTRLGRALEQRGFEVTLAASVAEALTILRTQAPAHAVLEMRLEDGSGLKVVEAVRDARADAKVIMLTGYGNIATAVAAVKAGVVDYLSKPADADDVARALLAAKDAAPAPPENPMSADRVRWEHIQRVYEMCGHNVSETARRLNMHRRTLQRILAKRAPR

[2] = target: T2, RtrA (Caulobacter crescentus (NA1000?)) (UniProt A0A0H3CB76); experiment: EMSA
T2 sequence: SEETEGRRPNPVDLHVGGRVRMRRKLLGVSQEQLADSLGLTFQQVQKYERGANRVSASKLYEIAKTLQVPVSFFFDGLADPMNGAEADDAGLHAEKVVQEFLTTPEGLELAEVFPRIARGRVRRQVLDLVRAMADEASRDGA

[3] = target: T3, RtrB (Caulobacter crescentus (NA1000?)) (UniProt A0A0H3C9Q5); experiment: EMSA
T3 sequence: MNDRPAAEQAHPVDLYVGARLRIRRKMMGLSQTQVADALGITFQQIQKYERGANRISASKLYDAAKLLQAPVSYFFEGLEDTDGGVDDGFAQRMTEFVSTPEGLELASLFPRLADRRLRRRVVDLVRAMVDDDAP

[4] = target: T2, RtrA (Caulobacter crescentus (NA1000?)); experiment: competition
[5] = target: T3, RtrB (Caulobacter crescentus (NA1000?)); experiment: competition

| Sequence | binding [1] | binding [2] | binding [3] | binding [4] | binding [5] |
| --- | --- | --- | --- | --- | --- |
| CTAGGGACTGCCATCTTCGGCTGTATTTCAGATTTGTTTCCGCATTGTGGCTGCGACGAAATGTCGCGGTACCCGCTTGTGCGCTGTTTTGACGCGATTTCGTCATTGACGGCTCTCCTCACGCGAGAACACTGTTCTTGTAGTGCTTGCTCCGATGGGCTGATTGGGCAAGCCAGAGGGGTGGGATGTCTGGTTACGA (double strand) [cspD promoter probe] | binds |  |  |  |  |
| TGGTGGTCCTGATCCTCCTGCAGCGACCGATCGTGCATCGCGCGCTGGTTCCCGCGCTCCTGCTCGCCTGGCTGGTCCTGAACGGGACGGACGTGATGCACTACAGCTAGGGCTCGGCGGCTCTGGTAAACAACCCAACCCCGATCAACGAAGGTTTAGAAAGCTTTAAGAGAAACGTTGCGAATTGTAAAATTCTTCTCTGGGTTGAAACCCATTTCGGGTGTATCGATGAGGTGTCGGGCCATTTATTGAGCGCGGACAGGATGTTGTCAGTG (double strand) [hfiA promoter probe] | no binding | binds | binds |  |  |
| TGGTGGTCCTGATCCTCCTGCAGCGACCGATCGTGCATCGCGCGCTGGTTCCCGCGCTCCTGCTCGCCTGGCTGGTCCTGAACGGGACGGACGTGATGCACTACAGCTAGGGCTCGGCGGCTCTGGTAAACAACCCAACCCCGATCAACGAAGGTTTAGAAAGCTTTAAGAGAAACGTTGCGAATTGTAAAATTCTTCTCTGGGTTGAAACCCATTTCGGGTGTATCGATGAGGTGTCGGGCCATTTATTGAGCGCGGACAGGATGTTGTCAGTG (double strand) [unlabeled specific hfiA competitor] |  |  |  | binds | binds |
